Source: the supplement of paper PMC9732359
± gives the uncertainty stated by the source.

Experiment: protein stability index of a GFP-peptide fusion (yeast GPS) (PSI 1-4); higher = more stable; sorted into four equal gates, so the index is relative within each strain
Procedure, shortened: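 Yeast carrying a pooled library were grown to mid-log phase in leucine-free medium. Each library plasmid expresses Cherry and has a tiled 17-residue yeast protein peptide fused downstream of GFP. Cells were sorted into four equal gates by GFP/Cherry ratio, and plasmids from each gate were PCR-amplified, Illumina-sequenced and assigned to strains by barcode. Summing, across gates, the read frequency times the gate number gave each peptide's protein stability index.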

| Sequence | protein stability index (doa10∆) | protein stability index (pdr5∆) | protein stability index (san1∆) | protein stability index (ubr1∆) |
| --- | --- | --- | --- | --- |
| KLMDEDSVATVIEVIET [YJR042W/NUP85] | 2.85 ± 0.13 | 3.02 ± 0.16 | 2.51 ± 0.11 | 2.98 ± 0.15 |
| YPIYELLMSCPRLSHLS [GRR1] | 1.42 ± 0.056 | 1.4 ± 0.048 | 1.45 ± 0.14 | 1.39 ± 0.052 |
| VVVVGTVTDDARIFEFP [RPL18A] | 2.75 ± 0.14 | 2.9 ± 0.097 | 2.6 ± 0.15 | 2.79 ± 0.092 |
| FLPFNNSASNNGNLTSN [SWI1] | 2.94 ± 0.093 | 3.02 ± 0.094 | 3.07 ± 0.058 | 2.9 ± 0.099 |
| LSRLSTASKIIVIDVDY [MED1] | 2.07 ± 0.058 | 2.3 ± 0.067 | 2.2 ± 0.051 | 2.41 ± 0.074 |
| KYIGEGSRMVRELFVMA [RPT6] | 2.24 ± 0.063 | 2.11 ± 0.058 | 2.81 ± 0.082 | 1.89 ± 0.07 |
| KEFKGIKVTVQLKIQNR [RPL12A] | 1.3 ± 0.08 | 1.62 ± 0.071 |  | 2.4 ± 0.09 |
| LGRDYPIEVDEELLQLF [IRR1] | 2.19 ± 0.24 | 1.99 ± 0.24 |  | 1.81 ± 0.24 |
| LMYATDWQMMTSPVTGA [CSL4] | 2.85 ± 0.15 | 3.21 ± 0.2 |  | 2.79 ± 0.28 |
| NKLVMKSKFNKSNRSYS [GAL11] | 2.92 ± 0.059 | 2.99 ± 0.099 | 3.01 ± 0.064 | 3.01 ± 0.053 |
| WPQSKNCEYEDPPNEGD [RPB3] | 3.45 ± 0.25 |  |  | 3.2 ± 0.14 |
| QKVLNAHRQRAMEARSS [SMC4] | 1.95 ± 0.12 | 2.36 ± 0.15 | 1.98 ± 0.15 | 1.32 ± 0.073 |
| QHGFEVQVGPMKVFVTK [RPB7] | 2.26 ± 0.065 | 2.41 ± 0.079 | 2.43 ± 0.089 | 2.52 ± 0.09 |
| IGTINSIVHINSQERVQ [SIR2] | 2.13 ± 0.037 | 2.16 ± 0.034 | 2.12 ± 0.05 | 1.95 ± 0.026 |
| VREFLEKNYDRKEPPAT [PRE6] | 3.29 ± 0.13 | 3.28 ± 0.1 | 3.11 ± 0.071 | 3.3 ± 0.068 |
| KASRKSVGLPSKVASSL [ECM29] | 2.81 ± 0.055 | 2.79 ± 0.066 | 2.69 ± 0.056 | 2.84 ± 0.052 |
| KTAPIQESFVPNSERSG [YOR098C/NUP1] | 2.27 ± 0.24 | 2.42 ± 0.11 | 1.4 ± 0.26 | 3.03 ± 0.081 |
| KKGKSSDKDATTDGKND [RPN1] |  | 3.28 ± 0.2 | 3.44 ± 0.16 | 3.52 ± 0.2 |
| KALDNACGAFININEFA [CDC53] | 2.56 ± 0.12 | 3 ± 0.14 | 2.71 ± 0.094 | 2.82 ± 0.15 |
| LKNTKYFQQTTIDWVEA [PRP8] | 2.93 ± 0.078 | 2.96 ± 0.08 | 2.83 ± 0.054 | 2.75 ± 0.072 |
| FGVTKARWPAKSVKFVQ [RPL17A] | 2.63 ± 0.088 | 2.51 ± 0.077 | 2.55 ± 0.069 | 3.05 ± 0.059 |
| APIKKIIERYIKSKADA [PRP8] | 3.11 ± 0.12 | 3.24 ± 0.12 | 2.98 ± 0.079 | 3.13 ± 0.11 |
| KADIGKPGRMPFNFTVT [CDC53] | 2.33 ± 0.042 | 2.75 ± 0.048 | 2.73 ± 0.058 | 2.89 ± 0.05 |

| Sequence | protein stability index (doa10∆) | protein stability index (pdr5∆) | protein stability index (san1∆) | protein stability index (ubr1∆) |
| --- | --- | --- | --- | --- |
| KESEISHNENKMDFSSK [YIL149C/MLP2] | 2.99 ± 0.086 | 3 ± 0.093 | 3.16 ± 0.086 | 3.19 ± 0.24 |
| SIRLKVPPTIAQFQYTL [RPL8A] | 2.09 ± 0.047 | 2.36 ± 0.04 | 1.93 ± 0.064 | 2.19 ± 0.035 |
| FDPFQAVSRSMTDIWNT [ECM29] | 2.81 ± 0.087 | 2.73 ± 0.07 | 2.85 ± 0.062 | 2.75 ± 0.071 |
| NECIASTSNALKVLSGD [SNF12] | 2.89 ± 0.059 | 2.86 ± 0.07 | 2.86 ± 0.05 | 2.79 ± 0.062 |
| RNVTKGDIVRMLETAGF [SMC3] | 2.81 ± 0.099 | 3.07 ± 0.12 | 2.76 ± 0.1 | 3.19 ± 0.07 |
| FEGCYYTPEESAWIWPM [RPC25] |  | 2.3 ± 0.21 | 2.55 ± 0.2 | 2.52 ± 0.13 |
| PRVIEPVYTAQWSATWI [PRP8] | 1.8 ± 0.072 | 2.17 ± 0.054 | 2.08 ± 0.07 | 2.13 ± 0.046 |
| EVALFSQKAKLMTFNAE [YLR335W/NUP2] | 2.27 ± 0.08 | 1.47 ± 0.057 | 1.5 ± 0.1 | 1.4 ± 0.085 |
| VFMLDTKRLGTPESVKP [RGR1] | 2.55 ± 0.075 | 2.64 ± 0.091 | 2.54 ± 0.11 | 2.8 ± 0.086 |
| TKGENYQLVKTLGEQLI [FAS2] | 3.06 ± 0.11 | 3.24 ± 0.13 | 2.6 ± 0.13 | 3.27 ± 0.15 |
| PTHYKIPAWFLNRQNDI [RPS18A] | 2.12 ± 0.065 | 2.19 ± 0.062 | 1.8 ± 0.071 | 1.75 ± 0.046 |
| NNESSDDMDIDEVNDRS [PCI8] | 3.09 ± 0.086 | 3.17 ± 0.072 | 3.05 ± 0.061 | 3.09 ± 0.081 |
| DSIPYPQIVKLFDISRE [ECM29] | 1.65 ± 0.065 | 1.3 ± 0.057 | 1.23 ± 0.073 | 2.08 ± 0.039 |
| LSGGGHDNHGNKLGNKR [CDC53] |  |  |  | 3.65 ± 0.23 |
| QQQTNALNGIDINTVNT [GRR1] | 3.31 ± 0.053 | 3.25 ± 0.055 | 3.24 ± 0.044 | 3.19 ± 0.05 |
| ALSAYHKVQTKLTRELE [RPS7B] | 2.4 ± 0.055 | 2.54 ± 0.058 | 2.33 ± 0.065 | 2.58 ± 0.043 |
| NISSSQQLLPAPQLFPY [DSN1] | 2.44 ± 0.12 | 2.71 ± 0.097 | 2.62 ± 0.078 | 2.84 ± 0.086 |
| FEIQGVPPMKLAYSKIV [YMR129W/POM152] | 1.59 ± 0.074 | 2.01 ± 0.063 | 1.53 ± 0.1 | 1.74 ± 0.062 |
| ENLPGLSISVAAEPMDS [SNU114] | 2.7 ± 0.062 | 2.91 ± 0.079 | 2.83 ± 0.074 | 3.17 ± 0.095 |
| TLVHTRVKIANTSAATV [SSN2] | 2.35 ± 0.056 | 2.31 ± 0.046 | 2.32 ± 0.044 | 2.57 ± 0.035 |
| RGFFDILSLATEGCIGL [MCD1] | 2.87 ± 0.1 | 3.03 ± 0.057 | 2.52 ± 0.092 | 2.7 ± 0.063 |
| VPFESLQGVTYPVLRKL [YIL149C/MLP2] | 2.82 ± 0.11 | 2.56 ± 0.075 | 2.32 ± 0.12 | 2.27 ± 0.068 |
| GQLPQLPKLNLPKYQTI [SNF5] | 2.78 ± 0.062 | 2.67 ± 0.055 | 2.57 ± 0.074 | 2.71 ± 0.047 |
